Experiments:
[1] = target: T1, Neurotensin receptor NTS1 (HT29 cells/membranes) (human), P30989; assay: competition, HT29 cells; conditions: modification not given
[2] = target: T1, Neurotensin receptor NTS1 (HT29 …); assay: competition, HT29 membranes; conditions: modification not given

T1 sequence (P30989 whole entry): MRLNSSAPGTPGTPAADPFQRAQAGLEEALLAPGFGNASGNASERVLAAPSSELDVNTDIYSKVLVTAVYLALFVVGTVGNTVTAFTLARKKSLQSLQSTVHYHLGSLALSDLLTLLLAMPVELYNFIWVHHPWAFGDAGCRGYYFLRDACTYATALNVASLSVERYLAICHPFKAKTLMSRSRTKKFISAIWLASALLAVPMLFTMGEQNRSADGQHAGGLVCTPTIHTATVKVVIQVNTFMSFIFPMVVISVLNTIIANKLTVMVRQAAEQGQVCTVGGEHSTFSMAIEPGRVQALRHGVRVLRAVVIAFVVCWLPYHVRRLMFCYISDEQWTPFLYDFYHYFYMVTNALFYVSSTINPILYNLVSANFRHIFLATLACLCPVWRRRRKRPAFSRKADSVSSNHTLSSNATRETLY

IC50 [1] [nM] | Ki [2] [nM] | Binder
9.9 |  | KPRRPYIL [DOTA(Y)-LB119]
7.5 |  | KPRRPYIL [DOTA(Ga)-LB119]
14.1 |  | KPRRPYIL [DOTA(In)-LB119]

Second part, the binder before the results:

Binder | IC50 [1] [nM] | Ki [2] [nM]
KPRRPYIL [DTPA(In)-NT-20.1] | 6.73 | 0.66
KPRRPYIL [DTPA(In)-NT-20.2] | 41.2 | 1.55
KPRRPYIL [NT-20.2] | 2.46 | 0.26
KPRRPYIL [NT-20.1] | 0.82 | 0.072
